Results taken from PMC9366794 (ACS Omega, 2022).
Ends that are not written are not given here.

Experiments:
[1] = biological target: mouse melanocortin-5 receptor (mouse) (UniProt P41149)
[2] = biological target: mouse melanocortin-1 receptor (mouse) (UniProt Q01727)
[3] = biological target: mouse melanocortin-3 receptor (mouse) (UniProt P33033)
[4] = tested on: wildtype, MC4R KO, and MC3R KO mice; details: significant out to at least 7 days post-administration; cited from earlier work
male mice = details: icv, 5 μg, at 4, 6, and 24 h; cited from earlier work
MC4R KO mice = MC4R KO mice (intact MC3R); cited from earlier work
[5] = biological target: mouse melanocortin-4 receptor (mouse) (UniProt P56450)
Chain of UniProt P56450 (P56450 whole entry): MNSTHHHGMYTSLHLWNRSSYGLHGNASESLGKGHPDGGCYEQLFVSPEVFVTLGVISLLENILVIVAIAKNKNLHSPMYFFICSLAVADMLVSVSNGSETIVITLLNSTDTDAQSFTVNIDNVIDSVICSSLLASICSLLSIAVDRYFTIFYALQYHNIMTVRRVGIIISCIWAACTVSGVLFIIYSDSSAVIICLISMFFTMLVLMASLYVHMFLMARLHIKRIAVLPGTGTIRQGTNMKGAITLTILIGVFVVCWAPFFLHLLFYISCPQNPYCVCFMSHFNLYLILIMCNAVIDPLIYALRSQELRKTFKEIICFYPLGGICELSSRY

Chain of UniProt P41149 (P41149 whole entry): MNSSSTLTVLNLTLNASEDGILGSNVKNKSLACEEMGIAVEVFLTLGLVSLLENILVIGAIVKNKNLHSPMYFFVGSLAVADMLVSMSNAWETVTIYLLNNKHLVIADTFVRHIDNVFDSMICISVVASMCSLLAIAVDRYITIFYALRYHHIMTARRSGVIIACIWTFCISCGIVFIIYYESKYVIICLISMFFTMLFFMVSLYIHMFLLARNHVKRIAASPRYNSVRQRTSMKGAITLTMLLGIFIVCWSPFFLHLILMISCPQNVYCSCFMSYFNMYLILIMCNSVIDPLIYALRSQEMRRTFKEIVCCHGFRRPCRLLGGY
Chain of UniProt P33033 (P33033 whole entry): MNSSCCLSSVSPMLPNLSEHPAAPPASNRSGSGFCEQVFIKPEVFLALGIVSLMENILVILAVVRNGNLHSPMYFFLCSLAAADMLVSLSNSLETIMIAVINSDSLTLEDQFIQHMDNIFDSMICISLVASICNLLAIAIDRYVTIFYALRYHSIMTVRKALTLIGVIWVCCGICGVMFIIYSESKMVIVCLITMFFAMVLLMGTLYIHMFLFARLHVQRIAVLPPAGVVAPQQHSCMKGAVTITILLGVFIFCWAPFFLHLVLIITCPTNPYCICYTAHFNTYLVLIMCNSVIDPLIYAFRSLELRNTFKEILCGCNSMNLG
Chain of UniProt Q01727 (Q01727 whole entry): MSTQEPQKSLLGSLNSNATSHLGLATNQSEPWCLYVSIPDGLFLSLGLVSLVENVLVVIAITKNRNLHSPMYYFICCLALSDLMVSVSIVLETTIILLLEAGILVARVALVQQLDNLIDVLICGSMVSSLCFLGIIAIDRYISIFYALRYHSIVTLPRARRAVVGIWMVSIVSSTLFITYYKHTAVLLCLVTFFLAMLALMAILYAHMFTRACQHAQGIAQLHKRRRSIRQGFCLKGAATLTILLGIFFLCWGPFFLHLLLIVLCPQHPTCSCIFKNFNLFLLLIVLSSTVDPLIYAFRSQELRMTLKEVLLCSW

Compound	agonist EC50, cAMP AlphaScreen, HEK293 cells stably expressing mMC5R [1] [nM]	agonist EC50, cAMP AlphaScreen, HEK293 cells stably expressing mMC1R [2] [nM]	agonist EC50, cAMP AlphaScreen, HEK293 cells stably expressing mMC3R [3] [nM]	also measured
Ac-Arg-Arg-(pI)DPhe-Wrf-NH2 (peptide)	240	380	570	–
AGRP: naturally occurring MC3R/MC4R antagonist agouti-related protein (SSRRCVRLHESCLGQQVPCCDPCATCYCRFFNAFCYCRKLGTAMNPCSRT; ends and bridges not checked; cysteine pairing not given here; UniProt O00253 83-132, looked up)	–	–	–	food intake compared to saline injection [4]: dose-dependent increase in food intake
CC(=O)N[C@@H](CCCNC(=N)N)C(=O)N[C@@H](CCCNC(=N)N)C(=O)N[C@H](Cc1ccc(I)cc1)C(=O)N1Cc2ccccc2C[C@H]1C(N)=O [compound 1, Ac-Arg-Arg-(pI)DPhe-Tic-NH2]	–	–	–	food intake versus artificial cerebrospinal fluid vehicle (male mice): statistically significant increase in food intake
Ac-Arg-Arg-(pI)DPhe-wsf-NH2 (peptide)	650	210	–	–
Ac-His-DPhe-Arg-Trp-NH2	–	–	–	food intake in MC4R KO mice (MC4R KO mice): decrease in food intake
MTII	–	–	–	food intake in MC4R KO mice (MC4R KO mice): decrease in food intake
NDP-MSH (peptide)	0.26	0.013	0.16	agonist EC50, cAMP AlphaScreen, HEK293 cells stably expressing mMC4R [5]: 0.68 nM
Ac-Arg-Arg-(pI)DPhe-Tic-NH2 (peptide)	7	0.18	10	–
Ac-Arg-Arg-wsf-Tic-NH2 (peptide)	350	–	–	–
